In publication PMC10980815, “Cell surface patching via CXCR4-targeted nanothreads for cancer metastasis inhibition” (Nature Communications, 2024):
Ends that are not written are not given here. HPMA copolymer = HPMA copolymer made by RAFT copolymerization of HPMA with N-(3-aminopropyl)methacrylamide (APMA), bearing maleimide groups for grafting

Legend:
[1] = Pharmacokinetics upon consecutive, simultaneous and post-assembly delivery; type: in vivo, female BALB/c mice; details: for T1/2z: blood fluorescence, mean ± SD, n = 5; for AUC0-t / AUC0-∞ / MRT0-t / MRT0-∞: same
Procedure: (§1) Three distinct delivery approaches were implemented in 4T1 tumor-bearing female BALB/c mice (6–8-week, tumor volume~200 mm^3, n = 5 per group). i) Consecutive delivery: Nanothread-1 and nanothread-2 were sequentially administered via intravenously injection with a 24 h time interval. ii) Simultaneous delivery: Nanothread-1 and Nanothread-2 were concurrently administered through two tail veins of one mouse. iii) Post-assembly delivery: Nanothread-1 and Nanothread-2 were pre-mixed before intravenous injection (5 nmol of Cy5 and 5 nmol of Cy3 per mouse). For the tumor accumulation study, whole-body living imaging was conducted at 24, 48, and 72 h post-administration of Cy5-labeled Nanothread. Additionally, excised tumors were imaged at the end point using the IVIS optical imaging system. For the pharmacokinetics study, blood samples were extracted at predetermined time points post-administration of fluorescence-labeled Nanothread, n = 5 per group. The fluorescent intensity in blood samples was measured with a microplate reader at the wavelengths of Cy5 (Ex: 630 nm, Em: 670 nm) and Cy3 (Ex: 530 nm, Em: 570 nm). Pharmacokinetic parameters, including half-life (T1/2z), area under curve (AUC), and mean residence time (MRT), were calculated using DAS 2.0 software.

[2] = ζ-potential (Zetasizer); type: physicochemical; details: Malvern Zetasizer Nano ZS90; mean ± SD
Procedure: (§2) The average molecular weight (Mw) and polydispersity (PDI) of the HPMA copolymer conjugates were determined by gel permeation chromatography (GPC) on an AKTA purifier equipment with a Superose 6 10/300 GL analytical column (GE Healthcare, USA) and a differential refraction detector (KNAUER, 2300, Germany). Hydrodynamic sizes and zeta potentials were determined using a Malvern Zetasizer Nano ZS90 equipment (Malvern Instruments Ltd, Malvern, UK). The contents of BS, CM1, and CM2 were determined using a bicinchoninic acid (BCA) protein assay. The PS concentration was determined by ultraviolet-visible (UV-Vis) spectroscopy at its characteristic absorbance peak (660 nm).

[3] = Hydrodynamic size / size distribution by dynamic light scattering; type: physicochemical; details: Malvern Zetasizer Nano ZS90, mean ± SD
Procedure: as §2
To investigate the coiled-coil assembly, varying CM1-to-CM2 ratios (3:1, 1:1, and 1:3) of P-BS-CM1 and P-CM2 were mixed in 10 mM PBS (pH 7.4) at 25 °C for 10 min. The total polymer concentration was kept constant at 10 mg/mL. Circular dichroism spectra, size distribution, and rheological properties of P-BS-CM1, P-CM2, and their mixture were measured. The surface morphology of P-BS-CM1 and the mixture (P-BS-CM1 + P-CM2) was observed using scanning electron microscopy. Additionally, for the FRET assay, CM1-to-CM2 equimolar of P-BS-CM1-Cy5 and P-CM2-Cy3 were mixed in 10 mM PBS (pH 7.4) at 25 °C for 10 min. Fluorescent spectra of P-BS-CM1-Cy5, P-CM2-Cy3, and the mixture (P-BS-CM1-Cy5+P-CM2-Cy3) were recorded at the Cy3 excitation wavelength of 550 nm.

[4] = tested on: orthotopic 4T1 breast tumors; assay: Tumor accumulation of Cy5-labeled nanothreads (IVIS imaging, excised tumors); type: in vivo, female BALB/c mice
Procedure: For in vitro studies, 4T1 cells (2 × 10^5 cells) were seeded on coverslips (NEST Biotechnology) for attachment. Subsequently, the cells were treated with i) Cy5-labeled P-CM1 (P-CM1-Cy5) for 1 h, followed by incubation in cell culture medium for an additional 1 h, ii) Cy5-labeled P-BS-CM1 (P-BS-CM1-Cy5) for 1 h, followed by incubation in cell culture medium for an additional 1 h, or iii) P-BS-CM1-Cy5 for 1 h, followed by Cy3-labeled P-CM2 (P-CM2-Cy3) for an additional 1 h (5 nM Cy5 and 5 nM Cy3 equivalence), respectively. Following the treatments, cells were washed three times with PBS, stained with DAPI, and observed using a confocal microscope. For in vivo studies, 4T1 cells (1 × 10^6) were injected into the third mammary fat pad of female BALB/c mice (6–8 weeks, 20 ± 2 g) (n = 3) on day 0 to establish orthotopic breast tumor models. For investigation of CXCR4 binding, mice on day 14 (tumor volume, ~200 mm^3) were intravenously injected with P-CM1-Cy5 or P-BS-CM1-Cy5 (equivalent Cy5 dose, 5 nmol/mouse, n = 3). Whole-body living imaging at 24, 48, and 72 h post-administration as well as excised tumors at the end point, were captured using the IVIS optical imaging system (IVIS Lumina Series III, PerkinElmer, USA). For the analysis of CM1/CM2 biorecognition in the second step, 4T1 tumor-bearing mice (tumor volume, ~200 mm^3) were intravenously injected with Cy5 labeled P-CM2 (P-CM2-Cy5) alone on day 15, or pre-injected P-BS-CM1 on day 14 followed by intravenous injection of P-CM2-Cy5 on day 15 (equivalent Cy5 dose, 5 nmol/mouse, n = 3). Whole-body living imaging at 24 and 48 h post-P-CM2-Cy5 administration, as well as excised tumors at the end point, were captured using the IVIS optical imaging system. For further investigation, mice (tumor volume, ~200 mm^3) were intravenously injected with P-BS-CM1-Cy5 on day 14 and then P-CM2-Cy3 on day 15 (5 nmol of Cy5 and 5 nmol of Cy3 per mouse). One day later, tumor tissues were collected for frozen sectioning and further observation by confocal microscope.
as §1

In the case of “P-CM2-Cy5: Cy5 labeled P-CM2 (C(HPMA copolymer)YGGEVSALEKEVSALEKKNSALEKEVSALEKEVSALEK; also: Cy5 label on conjugate, position not given here)”, the T1/2z ([1]; Consecutive delivery (24 h interval) with unlabeled partner nanothread, i.v., 4T1 tumor-bearing mice, 5 nmol Cy5/mouse, DAS 2.0) is reported as 20.232 ± 6.5 h, the AUC0-t ([1]; Consecutive delivery) is reported as 2807.529 ± 561.373 ng·h/mL and the “AUC0-∞” value ([1]; Consecutive delivery) is reported as 2999.46 ± 668.451 ng·h/mL. For the same molecule, the MRT0-t ([1]; Consecutive delivery) was 15.196 ± 1.358 h, the “MRT0-∞” value ([1]; Consecutive delivery) was 21.117 ± 3.236 h and the T1/2z ([1]; Post-assembly delivery (pre-mixed with unlabeled partner nanothread before i.v. injection)) was 14.142 ± 3.54 h. For the same molecule, the AUC0-t ([1]; Post-assembly delivery) was 1356.51 ± 241.624 ng·h/mL, the “AUC0-∞” value ([1]; Post-assembly delivery) was 1374.981 ± 237.509 ng·h/mL and the MRT0-t ([1]; Post-assembly delivery) was 8.789 ± 0.154 h. For the same molecule, the “MRT0-∞” value ([1]; Post-assembly delivery) was 10.384 ± 0.829 h, the T1/2z ([1]; Simultaneous delivery (two tail veins, 0 h) with unlabeled partner nanothread, i.v.) was 17.583 ± 4.307 h and the AUC0-t ([1]; Simultaneous delivery) was 1339.808 ± 201.879 ng·h/mL. For the same molecule, the “AUC0-∞” value ([1]; Simultaneous delivery) was 1385.53 ± 238.655 ng·h/mL, the MRT0-t ([1]; Simultaneous delivery) was 9.919 ± 0.611 h and the “MRT0-∞” value ([1]; Simultaneous delivery) was 12.694 ± 2.736 h. The ζ-potential [2] was -8.94±0.45 mV, the Size [3] was 19.8±0.7 nm and the “tumor accumulation of Nanothread-2 (Fig. 5b, excised tumors)” value (“tumor accumulation” for short) ([4]; P-CM2-Cy5 i.v. 5 nmol Cy5/mouse 24 h after saline or P-BS-CM1, IVIS at end point (48 h), animal 1 of 3) was 1.72. The “tumor accumulation” value ([4]; P-CM2-Cy5 i.v. 5 nmol Cy5/mouse 24 h after saline or P-BS-CM1, IVIS at end point (48 h), animal 1 of 3, listed as G3) was 0.962, the “tumor accumulation” value ([4]; same, animal 2 of 3) was 1.74 and the “tumor accumulation” value ([4]; same, animal 2 of 3, listed as G3) was 0.787. The “tumor accumulation” value ([4]; same, animal 3 of 3) was 1.49 and the “tumor accumulation” value ([4]; same, animal 3 of 3, listed as G3) was 0.495.

“P-CM2: HPMA copolymer-CM2 conjugate, ~12 CM2 grafts per polymer (C(HPMA copolymer)YGGEVSALEKEVSALEKKNSALEKEVSALEKEVSALEK; also: CM2 N-terminal cysteine joined to a maleimide of the HPMA copolymer backbone, ~12 per polymer)” showed a ζ-potential [2] of -8.73±0.34 mV and a Size [3] of 19.2±0.7 nm.

“P-PS-CM2: HPMA backbone grafted with CM2 and chlorin e6 photosensitizer (C(HPMA copolymer)YGGEVSALEKEVSALEKKNSALEKEVSALEKEVSALEK; also: chlorin e6 photosensitizer on polymer)” gave a ζ-potential [2] of -11.21±1.24 mV and a Size [3] of 25.8±1.2 nm.

B1: P-BS-CM1: linear HPMA polymer backbone grafted with CXCR4 binding sequence (BS) and coiled motif CM1 (conjugate)
chain 1: LGASWHRPDKCCLGYQKRPLPA
chain 2: C(HPMA copolymer)YGGKVSALKEKVSALKEEVSANKEKVSALKEKVSALKE
modifications: not fully specified (some residues); also: BS cysteines (Cys11, Cys12) joined to maleimides of the HPMA copolymer backbone, ~6 per polymer, CM1 N-terminal cysteine joined to a maleimide of the HPMA copolymer backbone, ~4 per polymer
In the case of B1, the ζ-potential [2] is reported as -5.67±0.79 mV and the Size [3] is reported as 17.5±2.1 nm.
